Data on 5 molecules can be found in patent US20140193415A1.

Where a chain is given by its changes, count along the chain named.

Test [1] deals with human IGF-1R (soluble, analyte in SPR) (human) (UniProt P08069). The experiment in a line: SPR (ProteOn XPR36), 25 C, Fab captured by anti-Fab; ratio against parental Ak18.
The target is the same in test [2]. As to the kind of experiment: SPR (ProteOn XPR36), 25 C, Fab captured by anti-Fab, IGF-1R as analyte.

B1: <IGF-1R> F13B5 Fab fragment (affinity-matured <IGF-1R> HUMAB-Clone 18) (Fab, V domains shown)
VH: QVELVESGGGVVQPGRSQRLSCAASGFTFSSYGMHWVRQAPGKGLEWVAIIWFDGSSTYYADSVRGRFTISRDNSKNTLYLQMNSLRAEDTAVYFCARELGRRYFDLWGRGTLVSVSS
VL: EIVLTQSPATLSLSPGERATLSCRASQSVSSYLAWYQQKPGQAPRLLIYQASKRATGIPARFSGSGSGTDFTLTISSLEPEDFAVYYCQQRSKYPPWTFGQGTKVESK
Regarding B1, in test [1], the x-fold increase of binding affinity (=KD (unmodified AK18)/KD (CDR-modified)) came to 12.4 fold. In addition, in test [2], the Kd (in general, a measure of binding affinity in units of concentration) worked out at 1.47 nM; the koff (commonly a measure of how fast the partners let go of each other) came to 0.00025 s⁻¹; the kon (in general, the rate constant with which the complex forms) was found to be 170000 M⁻¹ s⁻¹.

B2: <IGF-1R> L31D11 Fab fragment (affinity-matured <IGF-1R> HUMAB-Clone 18) (Fab, V domains shown)
VH: B1 VH
VL: B1 VL with Q27R, S30Y, Y32S, Q50K, K53S, Y94W
With B2, the x-fold increase of binding affinity (=KD (unmodified AK18)/KD (CDR-modified)) in test [1] was 68 fold. For the same molecule, in test [2], the Kd came to 0.269 nM, the koff came to 0.000153 s⁻¹ and the kon was found to be 571000 M⁻¹ s⁻¹.

B3: <IGF-1R> L31D7 Fab fragment (affinity-matured <IGF-1R> HUMAB-Clone 18) (Fab, V domains shown)
VH: B1 VH
VL: B1 VL with S30I, S31Q, Y32S, Q50R, Y94W
For the molecule B3, the x-fold increase of binding affinity (=KD (unmodified AK18)/KD (CDR-modified)) in test [1] was 17.8 fold. Moreover, in test [2], the Kd was 1.03 nM, the koff stood at 0.000538 s⁻¹ and the kon came to 523000 M⁻¹ s⁻¹.

B4: <IGF-1R> L37F7 Fab fragment (affinity-matured <IGF-1R> HUMAB-Clone 18) (Fab, V domains shown)
VH: B1 VH
VL: B1 VL with Y32Q, Q50K, S52T, K53N
For the molecule B4, the x-fold increase of binding affinity (=KD (unmodified AK18)/KD (CDR-modified)) in test [1] came out at 17.9 fold. In test [2], this molecule showed a Kd of 1.02 nM, a koff of 0.000237 s⁻¹ and a kon of 232000 M⁻¹ s⁻¹.

B5: <IGF-1R> L39D7 Fab fragment (affinity-matured <IGF-1R> HUMAB-Clone 18) (Fab, V domains shown)
VH: B1 VH
VL: B1 VL with S31K, Y32Q, Q50N
For B5, the x-fold increase of binding affinity (=KD (unmodified AK18)/KD (CDR-modified)) in test [1] was 23.8 fold. In test [2], the Kd was found to be 0.769 nM, the koff is 0.00027 s⁻¹ and the kon was found to be 351000 M⁻¹ s⁻¹.
